The values below are quoted from earlier work in PMC10954796, “Post-translational modifications of beta-amyloid alter its transport in the blood-brain barrier in vitro model” (Frontiers in Molecular Neuroscience, 2024).

Broadly, the Kd is the concentration at which binding is half-saturated.

Several values for one entry are separate records, joined by “and”; a condition that tells them apart may be missing. Equal entries are not always repeated.

Series [1] addresses Aβ40 1-40 (Homo sapiens) (UniProt P05067).
Series [2] has as its target Aβ42 oligomers 1-42 (Homo sapiens) (UniProt P05067). In words: surface plasmon resonance. In general terms: Surface plasmon resonance follows binding to a sensor surface in real time, without labels.

Sequence of Aβ40 1-40 (Homo sapiens) (P05067 1-40): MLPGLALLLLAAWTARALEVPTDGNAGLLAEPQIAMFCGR
Sequence of Aβ42 oligomers 1-42 (Homo sapiens) (P05067 1-42): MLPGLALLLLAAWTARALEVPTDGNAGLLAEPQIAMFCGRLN

Turning to RAGE (from UniProt Q15109), the dissociation constant Kd in series [1] is 75 nM and 57 nM. With sRAGE (from UniProt Q15109), the Kd in series [2] is 17 nM.
